Experimental data reported in US20110020359A1, “METHODS AND COMPOSITIONS FOR TREATING NEURONAL DAMAGE OR DEGENERATION” (California Institute of Technology, priority 2009, published 2011).

Tests used:
[1] = system: dissociated rat P5-9 CGN cultures; assay: Cerebellar granule neuron (CGN) neurite outgrowth assay; assay type: cell-based; conditions: PD98059 25; AG1478 15 nM; Y27632 5 μM; JNK inhibitor II 10 μM
Procedure: Nitric acid-treated, 15-mm round German glass coverslips are coated with P-Orn in pH 6-8.5 borate buffer (at approximately 50 μg/ml) for about 1 hr at 37° C. and 5% CO2. CSPGs (at approximately 1 μg/ml) or polysaccharides enriched in the CS-A, CS-C, or CS-E sulfation motifs (at approximately 1 μg/ml) are coated on the P-Orn-coated coverslips overnight at 37° C. and 5% CO2. Cerebella from P5-9 Sprague Dawley rats are dissected, purified as described above, and cultured on the coated coverslips at a cell density of about 200 cells/mm^2. Neurons are grown in DMEM/F12, 1% FBS, and N1 supplement for about 24 hr.
In one example, inhibitors against MEK (PD98059, 25 μM; Calbiochem), EGFR (AG1478, 15 nM; Calbiochem), ROCK (Y27632, 5 μM; Calbiochem) and JNK (JNK Inhibitor II, 10 μM; Calbiochem) are added in solution at the start of culturing, and neurons are grown for 24 hr. For neurite outgrowth experiments from p75 knockout mice, cerebella from P5-7 mice, either C57BL/6 wild-type or p75−/− knockout mice, are dissected and purified as described above. Neurons are plated at a density of 200-300 cells/mm2 and cultured for about 24 hr. Cells are then fixed in 4% PFA/10% sucrose, immunostained with neuronal specific anti-class III β-tubulin antibody (TUJ1; Covance), and evaluated for neurite outgrowth. Neurons are imaged using a Nikon TE2000-S fluorescent microscope and quantified using the NIH software Image J. Statistical analysis is performed using the one-way ANOVA; n=50-200 cells per experiment.
P7 rat CGNs are grown for 24 hours on CS-E (1 μg/ml) in the presence of the CS-E antibody (CS-E Ab; 10 μg/ml).

[2] = Carbohydrate microarray, binding to CS-E
Procedure: The concentrations of the solutions range from 250 nM to 40 μM, and are calibrated to one another using the carbazole assay for uronic acid residue. A given concentration of each polysaccharide is spotted five to ten times at different positions on the array. A boundary is created around the polysaccharide spots on the slides using a hydrophobic slide marker (Super Pap Pen, Research Products International) and the slides are blocked with 5-10% fetal bovine serum (FBS) in PBS with gentle rocking at 37 ° C. for about 1 hr, followed by a brief rinse with PBS. Human NgR-Fc or mouse EphB2-Fc (R & D Systems) is reconstituted in 1% BSA in PBS, added to the bound region on the slides in 100 μl quantities at a concentration of 1-2 μM, and incubated at room temperature for about 3 hr. The slides are briefly rinsed three times with PBS, and then incubated with a goat anti-human IgG antibody conjugated to Cy3 (1:5000 in PBS) for 1 hr in the dark with gentle rocking. After rinsing two times with PBS and once with H2O, the microarray is analyzed at 532 nm using a GenePix 5000a scanner, and fluorescence quantification is performed using GenePix 6.0. Binding of the anti-CS-E antibody is evaluated using 100 μl of a 1 μg/ml (˜7 nM) solution of antibody and a goat anti-mouse IgG secondary antibody conjugated to Cy3 (1:5000 in PBS). […]

[3] = Surface plasmon resonance, binding to CS-E-enriched polysaccharides; conditions: SPR; read-out: dissociation constant (Kd)
Procedure: Surface plasmon resonance experiments can be used to provide quantitative measurements of the binding kinetics or affinity between two or more molecules such as proteins, peptides, and small molecules. All experiments are performed on a Biacore T100 at 25° C. using a Sensor Chip CM5 with a running buffer composed of 0.01 M HEPES, pH 7.4, 0.15 M NaCl, 3 mM EDTA, 0.05% Surfactant P20 (HBS-EP^+). To analyze the binding of anti-CS-E antibody to the CS-E tetrasaccharide, both control and active flow cells are exposed to a 1:1 mixture of N-hydroxysuccinimide hydroxysuccinimide (NHS) and 1-ethyl-3,3-dimethylaminopropyl-carbodiimide (EDC) for 1-10 min at a flow rate of about 10 μL·min^−1. […] The kinetics of the anti-CS-E antibody/CS-E tetrasaccharide interaction is determined by approximately 300 s long injections of anti-CS-E antibody at about 30 μL·min^−1. The dissociation is monitored for about 900 s before the surface is regenerated with a 30 s injection of 6 M guanidine HCl. […] Affinity analysis is measured by injecting the antibody for about 3600 s at 5 μL·min^−1. […] The data is analyzed by plotting the response at equilibrium versus concentration and fitting the resulting curve to the Langmuir equation. […]
In another example, utilizing the surface plasmon resonance methods described, data was generated to quantify measurements of the binding kinetics between CS-E and the binding partner EphA4. […]

[4] = Pull-down with biotinylated CS-E; assay type: binding; conditions: COS-7 cell lysates, immunoblot
From the text: Pull down assays can be useful for identifying proteins which bind to CS (e.g. CS-A, CS-C, or CS-E). Pull down assays can also be used for identifying agents that disrupt the binding between CS and a known binding partner. Full-length human p75 cDNA (amino acids 1-427; Open Biosystems) is ligated into a pcDNA3 vector (Invitrogen), modified to fuse an HA tag to the 5′ end of the insert. Human NgR (amino acids 27-473; imaGenes) is ligated into a modified pAPtag-5 vector (GenHunter) which fuses a secretion signal sequence and a c-myc tag to the 3′ end of the insert. COS-7 cells are transfected with either NgR-myc, p75-HA, or both using the Lipofectamine (Invitrogen) method. Cells are lysed about 2 days after transfection with 0.5-2% Triton X-100 in PBS containing a protease inhibitor mixture (Roche) by rocking for 15-90 min at 4° C. The lysates are clarified by centrifugation at 5-25,000 rpm for 1-30 min.
Biotin is attached to the free amino group of the residual core peptides of CS-C and CS-E polysaccharides (Seikagaku). […]
Biotinylated CS-C or CS-E (approximately 280 μg each) in 100-500 μl of PBS is added to streptavidin agarose resin (about 140 μl; Pierce) and incubated at room temperature for about 1 hr. […] NgR-myc and p75-HA are detected by immunoblotting with myc-tag (Cell Signaling) or HA-tag (Sigma) antibodies.

COc1cc2ncnc(Nc3cccc(Cl)c3)c2cc1OC [AG1478]
rescue of CS-E- and CSPG-mediated inhibition of neurite outgrowth [1]: rescue

O=C1c2ccccc2-c2n[nH]c3cccc1c23 [JNK inhibitor II]
rescue of CS-E- and CSPG-mediated inhibition of neurite outgrowth [1]: no effect

COc1cccc(-c2cc(=O)c3ccccc3o2)c1N [PD98059]
rescue of CS-E- and CSPG-mediated inhibition of neurite outgrowth [1]: rescue

C[C@@H](N)[C@H]1CC[C@H](C(=O)Nc2ccncc2)CC1 [Y27632]
rescue of CS-E- and CSPG-mediated inhibition of neurite outgrowth [1]: rescue

B1: EfnB1: Ephrin B1, ligand that activates Eph receptors (protein, UniProt P98172 28-346, looked up)
Ephrin-B1: LAKNLEPVSWSSLNPKFLSGKGLVIYPKIGDKLDIICPRAEAGRPYEYYKLYLVRPEQAAACSTVLDPNVLVTCNRPEQEIRFTIKFQEFSPNYMGLEFKKHHDYYITSTSNGSLEGLENREGGVCRTRTMKIIMKVGQDPNAVTPEQLTTSRPSKEADNTVKMATQAPGSRGSLGDSDGKHETVNQEEKSGPGASGGSSGDPDGFFNSKVALFAAVGAGCVIFLLIIIFLTVLLLKLRKRHRKHTQQRAAALSLSTLASPKGGSGTAGTEPSDIIIPLRTTENNYCPHYEKVSGDYGHPVYIVQEMPPQSPANIYYKV
binding to CS-E-enriched polysaccharides on carbohydrate microarrays [2]: selectively bind
Kd [3]: 138 nM

B2: EfnA3: Ephrin A3, ligand that activates Eph receptors (protein, UniProt P52797 23-214, looked up)
Ephrin-A3: QGPGGALGNRHAVYWNSSNQHLRREGYTVQVNVNDYLDIYCPHYNSSGVGPGAGPGPGGGAEQYVLYMVSRNGYRTCNASQGFKRWECNRPHAPHSPIKFSEKFQRYSAFSLGYEFHAGHEYYYISTPTHNLHWKCLRMKVFVCCASTSHSGEKPVPTLPQFTMGPNVKINVLEDFEGENPQVPKLEKSISG
binding to CS-E-enriched polysaccharides on carbohydrate microarrays [2]: selectively bind
Kd [3]: 65 nM

B3: myc-NgR1: full-length myc-tagged human NgR expressed in COS-7 cells (protein, UniProt Q9BZR6 1-473, looked up)
chain: MKRASAGGSRLLAWVLWLQAWQVAAPCPGACVCYNEPKVTTSCPQQGLQAVPVGIPAASQRIFLHGNRISHVPAASFRACRNLTILWLHSNVLARIDAAAFTGLALLEQLDLSDNAQLRSVDPATFHGLGRLHTLHLDRCGLQELGPGLFRGLAALQYLYLQDNALQALPDDTFRDLGNLTHLFLHGNRISSVPERAFRGLHSLDRLLLHQNRVAHVHPHAFRDLGRLMTLYLFANNLSALPTEALAPLRALQYLRLNDNPWVCDCRARPLWAWLQKFRGSSSEVPCSLPQRLAGRDLKRLAANDLQGCAVATGPYHPIWTGRATDEEPLGLPKCCQPDAADKASVLEPGRPASAGNALKGRVPPGDSPPGNGSGPRHINDSPFGTLPGSAEPPLTAVRPEGSEPPGFPTSGPRRRPGCSRKNRTRSHCRLGQAGSGGGGTGDSEGSGALPSLTCSLTPLGLALVLWTVLGPC
modifications: full-length myc tag
notes: full-length myc-tagged human NgR expressed in COS-7 cells
pull-down by CS-E [4]: Pull-down of full-length, native NgR by CS-E
